Data taken from patent US9988424 (DUKE UNIVERSITY, dated 2018).

How the values were obtained:
AE.con gp140CF [1] = target: T1, AE.con gp140CF; experiment: ELISA, OD405 at 10 ug/ml mAb
T1 construct: also called AE.con.env03 gp140CF

A.9004SS V1V2 Tags [2] = target: T2, A.9004SS V1V2 Tags; experiment: ELISA, OD405 at 10 ug/ml mAb
T2 Env construct: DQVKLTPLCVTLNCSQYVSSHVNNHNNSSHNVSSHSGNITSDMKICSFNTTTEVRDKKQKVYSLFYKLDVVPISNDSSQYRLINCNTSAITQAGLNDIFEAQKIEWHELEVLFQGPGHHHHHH

D.9009SA V1V2 Tags [3] = target: T3, D.9009SA V1V2 Tags; experiment: ELISA, OD405 at 10 ug/ml mAb
T3 Env construct: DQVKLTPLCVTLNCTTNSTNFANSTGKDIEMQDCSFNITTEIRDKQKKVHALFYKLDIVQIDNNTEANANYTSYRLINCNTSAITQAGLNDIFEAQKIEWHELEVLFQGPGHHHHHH

C.1086 gp140 [4] = target: T4, C.1086 gp140; experiment: ELISA, OD405 at 10 ug/ml mAb
T4 construct: also called C.1086gp140C

B.63521_V1V2 Tags [5] = experiment: ELISA OD405nm, bar chart, antibody concentration not given
AE.con env03 40CF = target: T5, AE.con env03 40CF; experiment: as above
T5 construct: also called AE.con gp140CF; AE.con.env03 gp140CF

Con 6 120 = target: T6, Con 6 120; experiment: as above
T6 construct: also called Con 6 gp120

B.con env03 140CF = target: T7, B.con env03 140CF; experiment: as above
T7 construct: also called B.con gp140CF

A.9004SS V1V2 Tags [6] = target: T8, A.9004SS V1V2 Tags; experiment: as above
T8 V1V2 tags construct: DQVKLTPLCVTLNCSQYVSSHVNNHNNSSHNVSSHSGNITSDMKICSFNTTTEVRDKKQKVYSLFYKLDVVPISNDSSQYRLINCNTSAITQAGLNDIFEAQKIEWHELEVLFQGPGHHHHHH

AE.97CNG2XF gp140CF = target: T9, AE.97CNG2XF gp140CF (HIV-1); experiment: as above
T9 construct: also called E.97CNGX2F gp140CF

B.040 gp140C = experiment: as above
B.CaseA V1/V2 Tags = experiment: as above
[7] = target: T10, J08 A.92RW020V1V2/N156QN160Q (HIV-1); experiment: ELISA, mAb 0.001-100 ug/ml on coated V1V2 scaffold, OD450
T10 construct: also called J08 A.92RW020VV1V2/N156QN160Q

[8] = target: T11, J08 B.HXB2/BALV1V2N156QN160Q (HIV-1); experiment: as above
T11 chain: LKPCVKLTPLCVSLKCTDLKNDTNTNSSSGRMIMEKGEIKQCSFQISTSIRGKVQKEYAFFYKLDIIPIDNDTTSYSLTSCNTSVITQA

J08 C.97ZA012V1V2 = target: T12, J08 C.97ZA012V1V2 (HIV-1); experiment: as above
T12 chain: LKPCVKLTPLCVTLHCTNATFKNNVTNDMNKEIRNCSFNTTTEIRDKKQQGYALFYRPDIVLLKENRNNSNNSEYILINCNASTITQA

gp70 A.92RW020V1V2 = gp70 A.92RW020V1V2 (murine leukemia virus; HIV-1); experiment: as above
92TH023 gp120 = 92TH023 gp120 (HIV-1)
Con 6 gp120 = experiment: ELISA, OD405
AE.con gp140CF [9] = target: T1, AE.con gp140CF; experiment: ELISA, OD405
B.con gp140CF = target: T13, B.con gp140CF; experiment: ELISA, OD405
T13 construct: also called B.con.env03 gp140CF

B.Case A2 V1/V2 Tags = target: T14, B.Case A2 V1/V2 Tags; experiment: ELISA, OD405
T14 Env construct: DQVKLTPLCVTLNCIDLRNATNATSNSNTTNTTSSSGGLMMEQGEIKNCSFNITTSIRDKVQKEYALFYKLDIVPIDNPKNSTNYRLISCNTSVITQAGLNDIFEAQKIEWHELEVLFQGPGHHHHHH

A.9004SS V1V2 Tags [10] = target: T2, A.9004SS V1V2 Tags; experiment: ELISA, OD405
B.62357 140C = target: T15, B.62357 140C; experiment: ELISA, OD405
T15 construct: also called B.62357 gp140C

D.9009SA V1V2 Tags [11] = target: T3, D.9009SA V1V2 Tags; experiment: ELISA, OD405
G.con gp140CF = target: T16, G.con gp140CF; experiment: ELISA, OD405
T16 construct: also called G.con.env03 gp140CF

B.63521 gp140C = experiment: ELISA, OD405
B. 681-7 gp140C = experiment: ELISA, OD405
C.1086 gp140 [12] = target: T4, C.1086 gp140; experiment: ELISA, OD405
B.63521_V1V2 Tags [13] = target: T17, B.63521_V1V2 Tags; experiment: ELISA, OD405
T17 Env construct: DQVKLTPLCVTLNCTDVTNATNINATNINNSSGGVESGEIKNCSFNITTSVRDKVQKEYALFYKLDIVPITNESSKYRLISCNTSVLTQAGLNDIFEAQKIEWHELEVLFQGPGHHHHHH

B. 684-6 gp140C = experiment: ELISA, OD405

B1: CH59 (antibody, V domains shown)
VH: EVQLVESGGGLVQPGRSLRLSCAASGFTFDDGAMHWVRQAPGKGLEWVSGISWNSNIIAYADSVKGRFTISRDNAKNSLYLEMNSLRVEDTALYYCAKDSPRGELPLNYWGQGTLVTVSS
VL: SYELTQPPSVSVSPGQTARITCSGDALPKNYAYWYQQKSGQAPVLVIYEDSKRPSGIPERFSGSSSGTMATLTISGAQVEDEADYYCYSTDSSGNHRVFGGGTKLTVL
notes: also called mAb CH59
binding result (AE.con gp140CF [1]): binds | binding result (A.9004SS V1V2 Tags [2]): binds | binding result (D.9009SA V1V2 Tags [3]): binds | binding result (C.1086 gp140 [4]): binds

B2: CH59 reverted unmutated ancestor antibody (antibody, V domains shown)
VH: EVQLVESGGGLVQPGRSLRLSCAASGFTFDDYAMHWVRQAPGKGLEWVSGISWNSGSIGYADSVKGRFTISRDNAKNSLYLQMNSLRAEDTALYYCAKDSPRGELPFDYWGQGTLVTVSS
VL: SYELTQPPSVSVSPGQTARITCSGDALPKKYAYWYQQKSGQAPVLVIYEDSKRPSGIPERFSGSSSGTMATLTISGAQVEDEADYYCYSTDSSGNHRVFGGGTKLTVL
notes: also called CH59 RUA; CH59_RUA
binding result (B.63521_V1V2 Tags [5]): no binding (tested: not given) | binding result (AE.con env03 40CF): no binding (tested: not given) | binding result (Con 6 120): no binding (tested: not given) | binding result (B.con env03 140CF): no binding (tested: not given) | binding result (A.9004SS V1V2 Tags [6]): no binding (tested: not given) | binding result (AE.97CNG2XF gp140CF): no binding (tested: not given) | binding result (B.040 gp140C): no binding (tested: not given) | binding result (B.CaseA V1/V2 Tags): no binding (tested: not given)

B3: PG16 (antibody, V domains shown)
VH: QEQLVESGGGVVQPGGSLRLSCLASGFTFHKYGMHWVRQAPGKGLEWVALISDDGMRKYHSDSMWGRVTISRDNSKNTLYLQFSSLKVEDTAMFFCAREAGGPIWHDDVKYYDFNDGYYNYHYMDVWGKGTTVTVSS
VL: QSALTQPASVSGSPGQTITISCNGTSSDVGGFDSVSWYQQSPGKAPKVMVFDVSHRPSGISNRFSGSKSGNTASLTISGLHIEDEGDYFCSSLTDRSHRIFGGGTKVTVL
notes: also called mAb PG16; bnAb PG16
binding result [7]: no binding (tested: 100 ug/ml) | binding result [8]: no binding (tested: 100 ug/ml) | binding result (J08 C.97ZA012V1V2): no binding (tested: 100 ug/ml) | binding result (gp70 A.92RW020V1V2): no binding (tested: 100 ug/ml) | IC50 (92TH023 gp120): 10 to 100 nM

B4: 697D reverted unmutated ancestor antibody (antibody, V domains shown)
VH: QVQLVQSGAEVKKPGSSVKVSCKASGGTFSSYTISWVRQAPGQGLEWMGRIIPILGIANYAQKFQGRVTITADKSTSTAYMELSSLRSEDTAVYYCATSGVGLHFGYFDYWGQGTLVTVSS
VL: QSVLTQPPSVSGAPGQRVTISCTGSSSNIGAGYDVHWYQQLPGTAPKLLIYGNSNRPSGVPDRFSGSKSGTSASLAITGLQAEDEADYYCQSYDSSLSGYVFGTGTKVTVL
notes: also called 697D RUA
binding result (Con 6 gp120): no binding (tested: 10 ug/ml) | binding result (AE.con gp140CF [9]): no binding (tested: 10 ug/ml) | binding result (B.con gp140CF): no binding (tested: 10 ug/ml) | binding result (B.Case A2 V1/V2 Tags): no binding (tested: 10 ug/ml) | binding result (A.9004SS V1V2 Tags [10]): no binding (tested: 10 ug/ml) | binding result (B.62357 140C): no binding (tested: 10 ug/ml) | binding result (D.9009SA V1V2 Tags [11]): no binding (tested: 10 ug/ml) | binding result (G.con gp140CF): no binding (tested: 10 ug/ml) | binding result (B.63521 gp140C): no binding (tested: 10 ug/ml) | binding result (B. 681-7 gp140C): no binding (tested: 10 ug/ml) | binding result (C.1086 gp140 [12]): no binding (tested: 10 ug/ml) | binding result (B.63521_V1V2 Tags [13]): no binding (tested: 10 ug/ml) | binding result (B. 684-6 gp140C): no binding (tested: 10 ug/ml)
